According to patent publication US7829301B2, “Screening assays for binding antagonists of the AMD-associated variant of factor H (H384)” (The University of Manchester, priority 2006, dated 2010):
Changes are numbered by the printed parent chain.

T1: CRP (Homo sapiens, UniProt P02741)
T1 construct: purchased Calbiochem
T1 sequence (P02741 19-224): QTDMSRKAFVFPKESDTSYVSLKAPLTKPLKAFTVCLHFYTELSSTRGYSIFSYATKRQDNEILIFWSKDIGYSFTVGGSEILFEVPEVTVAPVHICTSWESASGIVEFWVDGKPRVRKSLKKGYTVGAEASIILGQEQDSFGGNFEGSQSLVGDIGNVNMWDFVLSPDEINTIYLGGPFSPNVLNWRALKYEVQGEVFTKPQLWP

B1: FHCCP6-8(H384): recombinant protein of Factor H CCPs 6-8, H384 allotype, with N-terminal non-authentic glycine (SEQ ID NO: 1) (protein, listed as Homo sapiens)
chain: MGTLKPCDYPDIKHGGLYHENMRRPYFPVAVGKYYSYYCDEHFETPSGSYWDHIHCTQDGWSPAVPCLRKCYFPYLENGYNQNHGRKFVQGKSIDVACHPGYALPKAQTTVTCMENGWSPTPRCIRVKTCSKSSIDIENGFISESQYTYALKEKAKYQCKLGYVTADGETSGSITCGKDGWSAQPTCI
modifications: VARIANT (1)...(188) Protein sequence of the FHCCP6-8 (H384) construct
B2: FHCCP6-8(Y384): recombinant Factor H CCPs 6-8, Y384 variant obtained by site-directed mutagenesis (SEQ ID NO: 3) (protein, listed as Homo sapiens)
chain: B1 chain with H84Y
modifications: VARIANT (1)...(188) FHCCP6-8 (Y384 allotype of mature Factor H)

Legend:
CRP = biological target: T1, CRP; assay: Protein/protein binding assay with coated CRP
Experimental: FMOD was isolated from bovine articular cartilage (Heinghrd et al., (1986) J. Biol. Chem. 261, 13866-13872) and recombinant CRP was obtained from Calbiochem. Deglycosylated FMOD was prepared by treatment with N-glycosiadase F (Roche Applied Science) as previously described (Sjöberg et al. (2005) J. Biol. Chem. 280, 32301-32308).
CRP or FMOD was coated overnight at 4° C. onto microtiter plates (Maxisorp, Nunc) at a concentration of 10 μg/ml in 75 mM sodium carbonate buffer, pH 9.6. Wells treated only with coating buffer or 1% (w/v) BSA (Sigma) in coating buffer (for the assays involving FMOD) were used as negative controls. Between each step the wells were washed extensively with 50 mM Tris-HCl, 150 mM NaCl, 0.1% (v/v) Tween 20, pH 7.5. All wells were blocked with 1% (w/v) BSA (Sigma) in phosphate buffered saline (Invitrogen) for 1 hour at 37° C. […] The amount of bound protein was assessed using a goat polyclonal anti-FH antibody (Quidel, Cat # A312) followed by HRP-labeled anti-goat secondary antibodies (Dako) and the OPD development kit (Dako). Detection of biotinylated protein was performed using a StreptABComplex/HRP-kit from Dako, and in both cases the absorbance at 490 nm was measured to quantify protein binding.

Linearized pcDNA3-vector = assay: Protein/DNA binding assay (agarose gel migration); settings: 5 μg protein, 30 ng DNA, 30 minutes at 37° C.
Experimental: Plasmid pcDNA3 DNA (Invitrogen) was linearized using EcoR1 (Fermentas) in a buffer accompanying the enzyme.
Linearized pcDNA3-vector (30 ng) was incubated with 5 μg of FHCCP(H384), FHCCP6-8(Y384) or full length FH (positive control) in the binding buffer (as described above) in a total volume of 20 μl for 30 minutes at 37° C. The negative control contained no protein. DNA loading buffer (0.25% (w/v) bromophenol blue, 0.25% (w/v) xylene cyanol, 30% (v/v) glycerol in deionized water) was added (1 μl) and the samples were run on an agarose gel (0.8% (w/v), Cambrex) containing ethidium bromide (Sigma) and visualized by UV. Changes in DNA migration served as a means of evaluating the presence of DNA-protein complexes.

[1] = Microtitre plate assay: biotinylated proteins binding to immobilized dermatan sulphate; design: species or system porcine; settings: biotinylated proteins 0-10 pmol/well
From the text: (§1) The heparin/HS/DS-binding activities of the FHCCP6-8(H384) and FHCCP6-8(Y384) variants (using biotinylated-FHCCP6-8 constructs), and in some cases full-length Factor H (detected with an antibody), were compared using an assay where the glycosaminoglycans (GAGs) were immobilized on allylamine-coated EpranEx plates (Mahoney et al (2004) Anal. Biochem. 330, 123-129), kindly supplied by Plasso Technology Ltd., Sheffield, UK. Previously, we have shown that heparin/HS can bind non-covalently to surfaces plasma polymerized with allylamine in such a way that these GAGs can still associate with a wide-range of proteins (Mahoney et al. (2005) J. Biol. Chem. 280, 27044-27055; Mahoney et al. (2004) ibid).
(§2) The following GAG preparations were analyzed: unfractionated heparins corresponding to the 2nd, 4th and 5th International Standards (denoted here as 2IS, 4IS and 5IS, respectively (Mulloy et al. (2000) Thromb. Haemost. 52, 148-153)); enoxaparin, dalteparin and LMr heparin from Sigma (Cat. No. H3400); selectively desulfated heparins prepared from 2IS heparin as described in Mulloy et al. (1994) Carbohydr. […]
In the case of the biotinylated FHCCP6-8(H384) and FHCCP6-8(Y384) constructs, bound material was detected by adding 200 μl/well of a 1:10,000 dilution of ExtrAvidin alkaline phosphatase (Sigma, Cat. No. E-2636) for 30 minutes. […]

[2] = Microtitre plate assay: biotinylated proteins binding to selectively desulphated 2IS heparin
From the text: as §1, §2
In the case of the biotinylated FHCCP6-8(H384) and FHCCP6-8(Y384) constructs, bound material was detected by adding 200 μl/well of a 1:10,000 dilution of ExtrAvidin alkaline phosphatase (Sigma, Cat. No. E-2636) for 30 minutes. […] For the full-length protein, the level of binding (to 4IS, HSI and HSII) was determined by incubation of the plates for 30 min with MRC OX23 (a monoclonal antibody against factor H (Sim et al. (1983) Biosci. Rep. 3, 1119-1131; 1 μg/well) followed by a 1:1000 dilution of alkaline phosphatase-conjugated goat anti-mouse IgG (Sigma, Cat. No. A-3438) for another 30 minutes. The plates were then developed for 10 min as described above. The absorbance values at 405 nm were determined and corrected against blank wells (i.e., those that contained no GAGs).

Molecule	binding to CRP relative to the other variant (CRP; biotinylated proteins)	DNA-protein complex formation (DNA migration in agarose gel) (Linearized pcDNA3-vector)	interaction with DS [1]	effect of removal of 2-O- or N-sulfate on binding ([2]; 2-O-deS or N-deS vs unmodified 2IS)	binding to CRP relative to the other variant (CRP; detection with polyclonal anti-FH antibody, p<0.03)	binding to 6-O-deS and N-deS/re-N-Ac preparations versus parental 2IS [2]	effect of removal of 2-O-, 2,6-O- or N-sulfates on binding ([2]; vs unmodified 2IS)
B1	lower CRP binding	retained DNA in its protein-complex form more efficiently	interact with DS, albeit to a lesser degree than heparin	large reduction			
B2		migrated mainly in the non-complexed form	interact with DS, albeit to a lesser degree than heparin		bound significantly better	indistinguishable	small effect
